Assay results published in US20090281035A1.

Molecular target: CD94-NKG2A-mFc singlechain (human)
Experiment: SPR, scCD94/NKG2A chip saturated with humZ270 10 µg/ml, then HLA-E tetramer 8 µg/ml (competitor: HLA-E tetramer)

CD94-NKG2A-mFc singlechain (human), sequence (chain, as listed by the source): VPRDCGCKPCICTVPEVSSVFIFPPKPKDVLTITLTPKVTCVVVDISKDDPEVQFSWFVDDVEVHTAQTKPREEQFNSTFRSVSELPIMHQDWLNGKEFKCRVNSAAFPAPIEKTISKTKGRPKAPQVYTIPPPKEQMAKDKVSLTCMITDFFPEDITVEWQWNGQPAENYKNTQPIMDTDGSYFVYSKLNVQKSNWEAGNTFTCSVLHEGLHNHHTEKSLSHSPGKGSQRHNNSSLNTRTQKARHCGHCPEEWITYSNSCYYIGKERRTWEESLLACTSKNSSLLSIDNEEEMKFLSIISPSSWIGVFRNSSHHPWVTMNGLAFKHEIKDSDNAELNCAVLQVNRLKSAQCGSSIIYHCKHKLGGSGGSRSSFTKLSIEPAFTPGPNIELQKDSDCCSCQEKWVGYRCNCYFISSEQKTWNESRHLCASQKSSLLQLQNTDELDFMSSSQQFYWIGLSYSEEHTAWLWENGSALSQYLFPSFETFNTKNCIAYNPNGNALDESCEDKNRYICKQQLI

percentage of inhibition of HLA-E tetramer binding: 81.8%
Substance: humZ270 (antibody)
